# Assay results reported in patent publication US11046945B2, “Labeled glutaminase proteins, isolated glutaminase protein mutants, methods of use, and kit” (CORNELL UNIVERSITY, priority 2013, dated 2021).
# T1: GAC (Mus musculus, UniProt D3Z7P3)
# T1 construct: plasmid (residues 72-603 for GAC, 72-674 for KGA); His-tag with thrombin cleavage site (N, cleaved yes); made in house; host or cells: pET23a vector
# T1 sequence (D3Z7P3 72-603 isoform D3Z7P3-2): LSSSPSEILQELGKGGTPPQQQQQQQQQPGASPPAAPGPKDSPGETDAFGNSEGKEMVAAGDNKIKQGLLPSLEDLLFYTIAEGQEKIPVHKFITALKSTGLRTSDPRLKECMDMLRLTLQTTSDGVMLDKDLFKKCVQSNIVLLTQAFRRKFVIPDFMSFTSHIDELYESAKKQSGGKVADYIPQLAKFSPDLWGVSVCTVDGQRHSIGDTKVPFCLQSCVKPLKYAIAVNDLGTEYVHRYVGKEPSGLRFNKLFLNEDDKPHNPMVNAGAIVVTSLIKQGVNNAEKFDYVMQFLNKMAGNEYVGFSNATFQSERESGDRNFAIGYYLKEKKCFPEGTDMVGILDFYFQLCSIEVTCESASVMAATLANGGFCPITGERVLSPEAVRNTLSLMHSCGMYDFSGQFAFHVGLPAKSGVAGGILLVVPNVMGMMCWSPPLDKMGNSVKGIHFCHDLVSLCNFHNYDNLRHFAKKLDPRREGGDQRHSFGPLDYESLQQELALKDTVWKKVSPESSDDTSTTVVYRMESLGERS
# Molecular target: T1, GAC
# Assay: FRET assay of GAC tetramer formation (488-GAC donor, QSY 9-GAC acceptor)
# Format: binding
# Conditions: 200 nM QSY 9-labeled protein added to 20 nM 488-WT-GAC
# Description: A mouse kidney type glutaminase isoform 1 (KGA, NP_001074550.1, which is hereby incorporated by reference in its entirety (SEQ ID NO:7)) and isoform 2 (GAC, NP_001106854.1, which is hereby incorporated by reference in its entirety (SEQ ID NO:3)) plasmid (residues 72-603 for GAC, 72-674 for KGA) was cloned into a pET23a vector containing an N-terminal histidine (His)-tag and thrombin cleavage site. The expressed protein was initially purified using Co^2+ affinity beads (Clontech), after which the His-tag was cleaved with human thrombin (Haemetologic Technologies) overnight at 4° C. and subsequently purified by anion exchange (GE healthcare) and gel filtration chromatography. Purified GAC or KGA was stored in a high salt containing buffer (20 mM Tris-HCl pH 8.5, 500 mM NaCl, 1 mM NaN3) and stored at −80° C. following snap freezing in liquid N2 for long term use. For labeling recombinant GAC or KGA with small molecule probes, 1.5 mg of enzyme was exchanged to 50 mM HEPES pH 7.2, 100 mM NaCl using a PD10 desalting column (GE healthcare) and incubated with 50 μM (5-fold excess of enzyme) of either ALEXA FLUOR® 488 succinimidyl ester or QSY® 9 succinimidyl ester (Molecular Probes) for 1 hr at 4° C. After 1 hr, the labeling reaction was quenched with 150 mM Tris-HCl pH 8.5 and unreacted probe was separated from labeled-enzyme using a PD10 desalting column eluting labeled-GAC back into the high salt containing buffer.
# Fluorescence experiments were performed using a Varian Carry Eclipse Fluorometer in the counting mode. Excitation and emission wavelengths were 490 and 520 nm, respectively. Experiments were all prepared as one-mL samples and stirred continuously at 20° C. in 50 mM Tris-Acetate pH 8.5, 0.1 mM ethylenediaminetetraacetic acid (EDTA). For WT GAC titrations in the absence of inorganic phosphate, 10 nM 488-GAC was equilibrated followed by injection of 25 μL of the appropriate concentration of QSY® 9-GAC and was allowed to equilibrate for 10 minutes at which point 75 μL of the appropriate concentration of unlabeled WT GAC was added to give a concentration that was ten-times that of labeled-GAC (i.e., 10-fold excess). For FRET experiments prepared for inorganic phosphate titrations, a similar protocol was followed whereby 10 nM of 488-GAC was equilibrated with 400 nM QSY® 9-GAC followed by injection of 100 μL of the appropriate concentration of K2HPO4 prepared in 50 mM Tris-Acetate (pH=8.5) 0.1 mM EDTA buffer. To test whether purified mutants can form oligomers with WT GAC, 200 nM QSY® 9-D391K-GAC or 200 nM QSY® 9-K316E-D391K-R459E was added to an equilibrated sample of 20 nM 488-WT GAC. Likewise, when assaying the effects of BPTES and 968 on oligomer formation, BPTES or 968 (10 μM or 25 μM, respectively) was added following equilibration of a sample of 200 nM of QSY® 9-WT GAC and 20 nM 488-WT GAC. Both BPTES and 968 were prepared in DMSO, and appropriate dilutions were made so that less than 2% (v/v) DMSO was added to an experimental sample.
row,EFRET max / energy transfer on addition to 488-GAC (WT),Molecule
1,approximately 0.3,QSY® 9-GAC (WT): wild type recombinant mouse GAC labeled with the non-fluorescent acceptor QSY 9 succinimidyl ester (protein) LSSSPSEILQELGKGGTPPQQQQQQQQQPGASPPAAPGPKDSPGETDAFGNSEGKEMVAAGDNKIKQGLLPSLEDLLFYTIAEGQEKIPVHKFITALKSTGLRTSDPRLKECMDMLRLTLQTTSDGVMLDKDLFKKCVQSNIVLLTQAFRRKFVIPDFMSFTSHIDELYESAKKQSGGKVADYIPQLAKFSPDLWGVSVCTVDGQRHSIGDTKVPFCLQSCVKPLKYAIAVNDLGTEYVHRYVGKEPSGLRFNKLFLNEDDKPHNPMVNAGAIVVTSLIKQGVNNAEKFDYVMQFLNKMAGNEYVGFSNATFQSERESGDRNFAIGYYLKEKKCFPEGTDMVGILDFYFQLCSIEVTCESASVMAATLANGGFCPITGERVLSPEAVRNTLSLMHSCGMYDFSGQFAFHVGLPAKSGVAGGILLVVPNVMGMMCWSPPLDKMGNSVKGIHFCHDLVSLCNFHNYDNLRHFAKKLDPRREGGDQRHSFGPLDYESLQQELALKDTVWKKVSPESSDDTSTTVVYRMESLGERS
2,only a minor extent of FRET,QSY® 9-GAC (D391K): QSY 9-labeled constitutive GAC dimer mutant D391K (protein) LSSSPSEILQELGKGGTPPQQQQQQQQQPGASPPAAPGPKDSPGETDAFGNSEGKEMVAAGDNKIKQGLLPSLEDLLFYTIAEGQEKIPVHKFITALKSTGLRTSDPRLKECMDMLRLTLQTTSDGVMLDKDLFKKCVQSNIVLLTQAFRRKFVIPDFMSFTSHIDELYESAKKQSGGKVADYIPQLAKFSPDLWGVSVCTVDGQRHSIGDTKVPFCLQSCVKPLKYAIAVNDLGTEYVHRYVGKEPSGLRFNKLFLNEDDKPHNPMVNAGAIVVTSLIKQGVNNAEKFDYVMQFLNKMAGNEYVGFSNATFQSERESGKRNFAIGYYLKEKKCFPEGTDMVGILDFYFQLCSIEVTCESASVMAATLANGGFCPITGERVLSPEAVRNTLSLMHSCGMYDFSGQFAFHVGLPAKSGVAGGILLVVPNVMGMMCWSPPLDKMGNSVKGIHFCHDLVSLCNFHNYDNLRHFAKKLDPRREGGDQRHSFGPLDYESLQQELALKDTVWKKVSPESSDDTSTTVVYRMESLGERS
3,no observable energy transfer,"QSY® 9-GAC (K316E, D391K, R459E): QSY 9-labeled monomer GAC mutant K316E/D391K/R459E (protein) LSSSPSEILQELGKGGTPPQQQQQQQQQPGASPPAAPGPKDSPGETDAFGNSEGKEMVAAGDNKIKQGLLPSLEDLLFYTIAEGQEKIPVHKFITALKSTGLRTSDPRLKECMDMLRLTLQTTSDGVMLDKDLFKKCVQSNIVLLTQAFRRKFVIPDFMSFTSHIDELYESAKKQSGGKVADYIPQLAKFSPDLWGVSVCTVDGQRHSIGDTKVPFCLQSCVKPLKYAIAVNDLGTEYVHRYVGEEPSGLRFNKLFLNEDDKPHNPMVNAGAIVVTSLIKQGVNNAEKFDYVMQFLNKMAGNEYVGFSNATFQSERESGKRNFAIGYYLKEKKCFPEGTDMVGILDFYFQLCSIEVTCESASVMAATLANGGFCPITGERVLSPEAVENTLSLMHSCGMYDFSGQFAFHVGLPAKSGVAGGILLVVPNVMGMMCWSPPLDKMGNSVKGIHFCHDLVSLCNFHNYDNLRHFAKKLDPRREGGDQRHSFGPLDYESLQQELALKDTVWKKVSPESSDDTSTTVVYRMESLGERS"
